Data as given in patent US20090306338A1 (TRUSTEES OF TUFTS COLLEGE, published 2009).
Square brackets hold non-standard residues; d marks the D form. Ends that are not written are not given here. Asp(3,3-Me2) = CC(C)(C(=O)O)[C@H](N)C(=O)O

How the values were obtained:
[1] = target: human GLP-1 receptor (human) (UniProt P43220); assay: cell-based or functional assay
[2] = target: human GLP-1 receptor (human) (UniProt P43220)
human GLP-1 receptor [3] = target: T1, human GLP-1 receptor (human, UniProt P43220 24-463); assay: cell-based or functional assay
human GLP-1 receptor [4] = target: T1, human GLP-1 receptor; assay: cell-based or functional assay; remark: listed apart in the source
human GLP-1 receptor [5] = target: T1, human GLP-1 receptor

Sequence of human GLP-1 receptor (human) (P43220 24-463): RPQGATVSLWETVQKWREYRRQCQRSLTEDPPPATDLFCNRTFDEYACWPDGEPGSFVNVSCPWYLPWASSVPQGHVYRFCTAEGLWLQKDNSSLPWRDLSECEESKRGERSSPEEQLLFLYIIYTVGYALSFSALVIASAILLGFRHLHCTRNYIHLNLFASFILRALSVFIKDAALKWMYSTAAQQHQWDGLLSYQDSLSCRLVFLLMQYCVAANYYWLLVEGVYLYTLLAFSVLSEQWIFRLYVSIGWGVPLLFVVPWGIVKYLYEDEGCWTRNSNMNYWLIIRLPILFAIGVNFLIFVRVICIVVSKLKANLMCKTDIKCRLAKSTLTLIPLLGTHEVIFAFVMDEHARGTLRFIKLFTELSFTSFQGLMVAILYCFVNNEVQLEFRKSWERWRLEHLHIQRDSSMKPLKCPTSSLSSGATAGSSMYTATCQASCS

For Exendin-4 (peptide), the EC50 for receptor activation (cAMP) [1] was 100 to 500 pM.

“Exendin-4 (peptide; other documents disagree on this pair)” gave an IC50 [2] of 400 pM.

HA[Asp(3,3-Me2)]GTFTSDVSSYLEGQAAKEFIAWLVKGRPSSGAPPPS (ends and bridges not checked) [P1732] was tested, and the “EC50 for receptor activation (cAMP)” value (human GLP-1 receptor [3]) was 400 to 1100 pM, the “EC50 (nM), cAMP production in COS-7 cells expressing the human GLP-1 receptor” value (human GLP-1 receptor [4]) was 0.64 nM and the IC50 (human GLP-1 receptor [5]) was 2500 pM.
